# Test results taken from US20100184651A1, “TARGETED FUSION PROTEINS FOR CANCER THERAPY” (Dabur Pharma Limited, priority 2005, published 2010).
# Tests used:
# VPAC-1 receptors = molecular target: T1, VPAC-1 receptors (Homo sapiens, UniProt P32241); test: Receptor targeting: competition with VIP (10-28) antagonist, MTT assay in HT29 cells; type: cell-based; conditions: 24 h
# T1 construct: endogenous in cells; host or cells: HT29 colon carcinoma cells
# T1 sequence (P32241 31-457): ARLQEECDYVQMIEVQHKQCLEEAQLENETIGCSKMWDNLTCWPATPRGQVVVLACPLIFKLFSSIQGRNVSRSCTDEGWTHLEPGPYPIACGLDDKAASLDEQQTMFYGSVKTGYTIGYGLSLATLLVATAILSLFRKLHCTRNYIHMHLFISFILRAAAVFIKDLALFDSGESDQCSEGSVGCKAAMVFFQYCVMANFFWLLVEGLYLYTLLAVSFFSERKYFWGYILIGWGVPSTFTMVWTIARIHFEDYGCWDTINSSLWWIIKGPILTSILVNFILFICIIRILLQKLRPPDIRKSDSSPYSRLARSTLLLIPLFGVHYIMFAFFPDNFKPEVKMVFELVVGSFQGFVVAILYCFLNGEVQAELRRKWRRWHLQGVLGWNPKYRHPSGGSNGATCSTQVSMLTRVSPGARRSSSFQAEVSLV
# Method: To further confirm the receptor mediated targeting of the protein, HT29 cells were pre-incubated with varying concentrations of VIP antagonist, VIP (10-28) peptide [Gozes I., et al., Cell Mol. Neurobiol., 1995, 15, 675] for 30 minutes followed by treatment with 10 μM of fusion protein. […] Similar, observation was made when the cells were treated with 5 μM of fusion protein, although this time the receptors were saturated by 25 μM concentration of the antagonist (FIG. 14b).
# Cells were seeded in 96-well microplates, followed by the addition of various concentrations of the VIP antagonist VIP (10-28) Fragment for 30 minutes, followed by the addition of fusion protein at a fixed concentration. VIP (10-28) Fragment was allowed to remain in culture wells for whole of the experiment. After a 24-hour incubation, the MTT assay was performed as above.
# [1] = molecular target: T2, VPAC 1 receptors expressed on A549 cells (Homo sapiens, UniProt P32241); test: Immunocytochemical staining for cell surface receptors on A549 cells; type: binding; conditions: A549 cells pre-treated, then anti-VPAC-1 immunostaining
# T2 construct: the receptors were overexpressed in the A549 cell line; endogenous in cells; host or cells: A549 human lung carcinoma cells (acetone-fixed on slides)
# T2 sequence (P32241 31-457): T1 sequence (P32241 31-457)
# Method: Similarly, when, the cells were treated with fusion protein and immuno-stained with anti-BID. […] A similar observation was made when A549 cells were pre-treated with VIP antagonist, VIP (10-28) followed by fusion protein and immunostaining with anti-BID (FIG. 15e).
# Cultured (A549 human lung carcinoma) cells were detached with trypsin/EDTA and pelleted by low-speed centrifugation. The cells were resuspended in PBS. Cell suspensions were coated onto poly-L-lysine coated glass slides, dried and then fixed for 10 min in acetone at −20° C. After drying for 2 h, slides were rinsed in PBS and then treated for 5 min with water/H2O2 in order to block endogenous peroxidase. Slides were again rinsed again in PBS and treated with normal rabbit and goat serum to block background staining. Slides were then incubated with antagonist, VIP(10-28) and/or fusion protein for 1 hr each. Slides were again washed with PBS and incubated with rabbit-anti-BID antibody (dilution 1:1000) or goat anti-VPAC 1 antibody (dilution 1:1000) for 1 h. Slides were again washed in PBS and incubated with […] IgG peroxidase labelled antibodies for anti-BID and anti-VPAC 1 primary antibodies respectively, for 1 h followed by addition of the 3,3′-diaminobenzidine-tetrachloride (DAB) substrate and hydrogen peroxide in PBS. […]
substance,measurement,setting,value
"VIP (10-28) peptide: VIP antagonist, VIP (10-28) peptide (YTRLRKQMAVKKYLNSILN)",concentration of antagonist giving complete loss of cytotoxicity of fusion protein,"VPAC-1 receptors; HT29 pre-incubated 30 minutes with antagonist, then 10 μM of fusion protein",100 µM
same,concentration of antagonist at which the receptors were saturated (loss of cytotoxicity),"VPAC-1 receptors; HT29 pre-incubated with antagonist, then 5 μM of fusion protein",25 µM
same,availability of VPAC-1 receptors to anti VPAC-1 after pre-treatment,[1],significant loss in the immunostained cell population
